The values that follow are results of earlier work, collected in PMC4046138.

As usually defined, the Kd is the equilibrium constant for the complex coming apart.

For this data set, the target named is mesothelin (Homo sapiens) (UniProt Q13421).
UniProt Q13421, sequence (Q13421 other isoform, or with tags, fused parts or gaps): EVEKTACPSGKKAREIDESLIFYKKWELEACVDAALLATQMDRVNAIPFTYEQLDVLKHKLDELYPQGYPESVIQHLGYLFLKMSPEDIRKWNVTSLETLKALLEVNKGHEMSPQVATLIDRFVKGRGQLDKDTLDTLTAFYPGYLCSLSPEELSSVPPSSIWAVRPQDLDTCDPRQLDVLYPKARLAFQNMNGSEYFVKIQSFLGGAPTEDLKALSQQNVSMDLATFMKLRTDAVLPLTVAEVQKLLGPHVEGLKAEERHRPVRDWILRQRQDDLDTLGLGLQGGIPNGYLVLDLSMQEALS

MUC16 (from UniProt Q8WXI7): the Kd was 5 nM.
